From publication PMC4115230, “Lipid–Protein Nanodiscs Offer New Perspectives for Structural and Functional Studies of Water-Soluble Membrane-Active Peptides” (Acta Naturae, 2014)

Tests used:
[1] = biological target: T1, Membrane scaffold protein (MSP): recombinant 44-243 fragment of human apolipoprotein A1 with an N-terminal … (human, Printed limits 44-243 are in mature numbering: mature apoA-I is precursor 25-267 (243 aa), so residue 243 is the C-terminus and the offset is +24. N-terminal His6 tag omitted. Each nanodisc contains t); assay: NMR titration; VSTx1 sample (20 μM by the legend of Fig. 2, 10 mM Tris-Ac, pH 7.0, no added salt) titrated with a lipid-free MSP solution (0.7 mM); 1D 1H-NMR signal intensity taken as free peptide; 40-45 °C; fits to partition equilibrium (eq. 1) and Langmuir isotherm (eq. 2); MSP concentration and n counted per two MSP molecules (MSP×2); details: both partners purified
[2] = biological target: T1, Membrane scaffold protein (MSP): …; assay: as above; details: both partners purified; remark: listed apart in the source

T1 sequence (chain, as listed by the source): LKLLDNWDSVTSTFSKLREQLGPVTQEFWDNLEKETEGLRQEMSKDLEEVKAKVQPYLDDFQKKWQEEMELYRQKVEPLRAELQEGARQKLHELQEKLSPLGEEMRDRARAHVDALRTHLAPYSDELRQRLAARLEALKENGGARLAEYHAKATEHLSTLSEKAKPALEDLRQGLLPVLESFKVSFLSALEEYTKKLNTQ

B1: VSTx1, voltage sensor toxin from Grammostola spatulata spider venom (recombinant analogue with additional N-terminal Gly-Ser) (peptide)
chain: GSECGKFMWKCKNSNDCCKDLVCSSRWKWCVLASPF
notes: additional N-terminal Gly-Ser residues left by the hydrolysis with thrombin; VSTx1 toxin from Grammostola spatulata spider venom, 34 AA, 4010 Da; three disulfide bonds (cysteine knot); The gene was built from synthetic oligonucleotides; also called VSTx1 toxin; recombinant VSTx1 analogue; not shown: thioredoxin (TRX), N-terminal, cleaved
stoichiometry N [1]: 1.6 | Ka [2]: 50000 ± 0.02 M⁻¹ | stoichiometry N [2]: 3.2 ± 0.9
